According to publication PMC5397183:
Read-outs that look alike come from different tables or passages of the source.

T1: FadR WT (native, crystal) (Bacillus halodurans, UniProt Q9K8A4 1-195)
T1 sequence: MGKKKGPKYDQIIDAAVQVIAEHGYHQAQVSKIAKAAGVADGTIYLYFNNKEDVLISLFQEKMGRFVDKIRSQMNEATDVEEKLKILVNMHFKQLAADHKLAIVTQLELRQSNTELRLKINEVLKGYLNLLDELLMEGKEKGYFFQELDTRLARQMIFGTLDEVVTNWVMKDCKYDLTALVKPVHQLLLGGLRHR


Assays:
[1] = biological target: Bacillus halodurans FadR (native) (Bacillus halodurans); assay: crystal structure
[2] = biological target: Bacillus halodurans FadR (native) (Bacillus halodurans); assay: crystal structure; remark: listed apart in the source
[3] = biological target: T1, FadR WT (native, crystal); assay: X-ray crystallography

Row | Molecule | stoichiometry N [1] | stoichiometry N [2] | binding result [3]
1 | Bacillus halodurans FadR (native) (natural protein) | 2 | 2 | 
2 | 21OH fadR promoter (dsDNA) DNA 1: GATGAATGAATACTCATTCAT DNA 2: CATGAATGAGTATTCATTCAT |  |  | binds
